These results are taken from paper PMC8470133, “Aptasensor for the Detection of Mycobacterium tuberculosis in Sputum Utilising CFP10-ESAT6 Protein as a Selective Biomarker”.

This series has as its target T1, CFP10-ESAT6 antigen (Mycobacterium tuberculosis, UniProt P9WNK5;P9WNK7 2-100;2-95).
T1 chain 1: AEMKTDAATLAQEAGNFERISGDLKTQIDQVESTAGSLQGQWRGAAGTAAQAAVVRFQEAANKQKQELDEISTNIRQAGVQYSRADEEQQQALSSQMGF
T1 chain 2: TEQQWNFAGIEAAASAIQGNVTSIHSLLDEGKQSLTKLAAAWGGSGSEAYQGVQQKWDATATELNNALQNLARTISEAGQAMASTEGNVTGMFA
Put plainly: circular dichroism; Sensor: antigen incubated 1 h at 37 °C on aptamer electrode blocked with 0.25% BSA, PBS wash; DPV in 0.1 M PBS pH 7.4; CD buffer not given. The following applies: protein: commercial; copies: 1;1; folded. (In general: Circular dichroism is widely used to follow secondary structure.)

B1: CapApt (CFP10-ESAT6 aptamer) (ssDNA)
DNA: GCCTGTTGTGAGCCTCCTAACCCCATCTTATACGTATATGGACTCATCTCGACCCCCGATAGGCTTGGTACATGCTTATTCTTGTCTCCC
modifications: 5'-NH2
Regarding B1, the binding result is “binds”.
